According to patent US20040115738A1 (INNATE PHARMA, published 2004):

Assays:
[1] = biological target: T1, FcεRIγ (UniProt P30273 19-86); experiment: co-immunoprecipitation (data not shown)
T1 construct: Endogenous protein in NK cell lysates; also called FcεFRIγ (as misprinted)
T1 sequence (looked up): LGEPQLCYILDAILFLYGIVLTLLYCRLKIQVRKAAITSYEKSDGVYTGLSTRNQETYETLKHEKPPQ

[2] = biological target: T2, DAP12 (UniProt O43914 22-113); experiment: co-immunoprecipitation (data not shown)
T2 construct: Endogenous protein in NK cell lysates
T2 sequence (O43914 22-113 limits assumed): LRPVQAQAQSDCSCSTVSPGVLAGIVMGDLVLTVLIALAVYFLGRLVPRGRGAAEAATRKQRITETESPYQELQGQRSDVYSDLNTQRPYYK

B1: NKp80 (receptor)
chain: MQDEERYMTLNVQSKKRSSAQTSCLTFKDYSVTLHWYKILLGISGTVNGILTLTLISLILLVSCGVLLKCQKGSCSNATQYEDTGDLKVNNGTRRNISNKDLCASRSADQTVLCQSEWLKYQGKCYWFSNEMKSWSDSYVYCLERKSHLLIIHDQLEMAFIQKNLRQLNYVWIGLNFTSLKMTWTWVDGSPIDSKIFFIKGPAKENSCAAIKESKIFSETCSSVFKWICQY
notes: 231 aa type II transmembrane protein; On the NK cell surface it is a dimer (80 kD non-reduced, about 40 kD reduced); Tested on human NK cells, in lysates of 125I-labeled NK cells, and on 293T cells transfected with VR1012-ML; also called MA152-reactive molecule; MA152 mAb-reactive molecule
- binding result [1]: no binding
- binding result [2]: no binding
